The source of these data is patent publication US20200317768A1 (published 2020).

The target in assay [1] is T1, cynomolgus monkey FcγRIIb extracellular domain with C-terminal His-tag (cynomolgus monkey).
T1 construct: also called cyno FcgRIIb; cynoFcγRIIb
T1 chain: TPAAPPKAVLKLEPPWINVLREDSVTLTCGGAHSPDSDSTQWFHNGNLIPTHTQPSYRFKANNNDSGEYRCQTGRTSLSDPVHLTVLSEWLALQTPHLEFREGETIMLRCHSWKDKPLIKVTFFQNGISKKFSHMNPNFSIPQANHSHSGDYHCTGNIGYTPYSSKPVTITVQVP
The assay can be described thus: SPR (BIACORE), antibody captured, FcgR analyte. (SPR reads the build-up and loss of mass on a sensor chip optically.)

Assay [2] deals with T2, cynomolgus monkey FcγRIIIaS extracellular domain with C-terminal His-tag (cynomolgus monkey, UniProt Q8SPW2 21-206 at identity 1.00)).
T2 construct: also called cyno FcgRIIIaS; cynoFcγRIIIaS
T2 chain: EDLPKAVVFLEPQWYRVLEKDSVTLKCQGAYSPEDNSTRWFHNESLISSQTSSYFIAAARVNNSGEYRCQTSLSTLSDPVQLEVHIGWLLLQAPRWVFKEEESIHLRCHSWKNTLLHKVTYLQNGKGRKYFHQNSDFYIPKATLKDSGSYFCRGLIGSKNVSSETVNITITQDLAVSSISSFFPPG
The assay can be described thus: SPR (BIACORE); KD of SG1 / KD of variant.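 Also: relative to parent M103205H795-SG1 carrying the SG1 human heavy chain constant region.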

The target in assay [3] is T3, human FcγRIIb extracellular domain with C-terminal His-tag (human, UniProt P31994 43-217).
T3 construct: also called human FcgRIIb
T3 sequence: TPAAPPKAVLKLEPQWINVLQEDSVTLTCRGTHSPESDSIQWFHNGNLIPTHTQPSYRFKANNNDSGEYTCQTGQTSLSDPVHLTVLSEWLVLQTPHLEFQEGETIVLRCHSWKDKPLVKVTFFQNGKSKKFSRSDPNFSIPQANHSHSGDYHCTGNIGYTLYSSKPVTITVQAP
The experiment in a line: SPR (BIACORE); KD of SG1 / KD of variant.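 Also: relative to parent M103205H795-SG1 carrying the SG1 human heavy chain constant region.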

Assay [4] has as its target T4, cynomolgus monkey FcγRIIa3 extracellular domain with C-terminal His-tag (cynomolgus monkey).
T4 construct: also called cyno FcgRIIa3; cynoFcγRIIa3
T4 chain: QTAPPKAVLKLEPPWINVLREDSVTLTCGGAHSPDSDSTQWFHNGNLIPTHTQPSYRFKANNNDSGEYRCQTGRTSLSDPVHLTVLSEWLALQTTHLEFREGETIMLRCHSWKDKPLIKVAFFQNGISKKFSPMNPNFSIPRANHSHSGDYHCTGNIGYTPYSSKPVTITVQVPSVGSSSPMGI
The experiment in a line: SPR (BIACORE); KD of SG1 / KD of variant.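 Also: relative to parent M103205H795-SG1 carrying the SG1 human heavy chain constant region.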

Assay [5] has as its target T5, cynomolgus monkey FcγRIIa1 extracellular domain with C-terminal His-tag (cynomolgus monkey).
T5 construct: also called cyno FcgRIIa1; cynoFcγRIIa1
T5 chain: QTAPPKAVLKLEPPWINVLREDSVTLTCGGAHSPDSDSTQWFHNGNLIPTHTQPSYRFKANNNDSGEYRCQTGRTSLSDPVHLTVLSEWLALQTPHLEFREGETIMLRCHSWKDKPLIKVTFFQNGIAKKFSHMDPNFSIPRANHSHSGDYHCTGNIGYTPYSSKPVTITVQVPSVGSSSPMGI
The assay can be described thus: SPR (BIACORE); KD of SG1 / KD of variant.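 Also: relative to parent M103205H795-SG1 carrying the SG1 human heavy chain constant region.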

Assay [6] deals with T6, human FcγRIIIaV extracellular domain with C-terminal His-tag (human, UniProt P08637 17-208).
T6 construct: also called human FcgRIIIaV
The experiment in a line: SPR (BIACORE); KD of SG1 / KD of variant.

In assay [7] the target is T7, cynomolgus monkey FcγRIIa2 extracellular domain with C-terminal His-tag (cynomolgus monkey).
T7 construct: also called cyno FcgRIIa2; cynoFcγRIIa2
T7 chain: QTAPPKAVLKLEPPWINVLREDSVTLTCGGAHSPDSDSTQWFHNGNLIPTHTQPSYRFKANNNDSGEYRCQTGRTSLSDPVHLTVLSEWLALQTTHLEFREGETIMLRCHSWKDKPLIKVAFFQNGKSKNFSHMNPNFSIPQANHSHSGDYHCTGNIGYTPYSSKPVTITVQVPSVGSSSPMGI
The assay can be described thus: SPR (BIACORE); KD of SG1 / KD of variant.

For assay [8], the target named is T1, cynomolgus monkey FcγRIIb extracellular …. The assay can be described thus: SPR (BIACORE); KD of SG1 / KD of variant.
In assay [9] the target is T8, human FcγRIIaH extracellular domain with C-terminal His-tag (human, UniProt P12318 34-217).
T8 construct: also called human FcgRIIaH; FcγRIIa (type H)
T8 sequence: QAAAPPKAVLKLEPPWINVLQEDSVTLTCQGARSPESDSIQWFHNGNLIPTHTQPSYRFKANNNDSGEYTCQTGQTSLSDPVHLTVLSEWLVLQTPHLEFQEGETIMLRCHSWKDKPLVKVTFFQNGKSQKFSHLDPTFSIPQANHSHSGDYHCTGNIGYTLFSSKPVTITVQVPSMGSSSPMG
The experiment in a line: SPR (BIACORE); KD of SG1 / KD of variant.

T6 sequence (P08637 17-208 F176V): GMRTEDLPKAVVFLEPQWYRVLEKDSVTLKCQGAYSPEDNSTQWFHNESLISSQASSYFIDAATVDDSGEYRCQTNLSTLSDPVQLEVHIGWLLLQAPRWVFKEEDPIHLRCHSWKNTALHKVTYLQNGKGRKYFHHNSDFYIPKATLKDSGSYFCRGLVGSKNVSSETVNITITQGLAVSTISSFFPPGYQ

B1: M103205H795-MY516/M103202L889-SK1 (antibody, human IgG1, kappa)
heavy: QVTLKESGPVLVKPTETLTLTCTVSGIDLSHDDISWVRQAPGKGLEWVGIISYAGSTYYASWAKGRLTISKDTSKNQVVLTMTNMDPVDTATYYCARGVPAYSHGGDLWGQGTLVTVSSASTKGPSVFPLAPSSKSTSGGTAALGCLVKDYFPEPVTVSWNSGALTSGVHTFPAVLQSSGLYSLSSVVTVPSSSLGTQTYICNVNHKPSNTKVDKKVEPKSCDKTHTCPPCPAPELLTGPVVFLFPPKPKDTLMISRTPEVTCVVVDVSDEDPEVKFNWYVDGVEVHNAKTKPREELYNLTYRVVSVLTVLHQDWLNGKEYKCKVSNKALPKPIEKTISKAKGQPREPQVYTLPPSREEMTKNQVSLTCLVKGFYPSDIAVEWESNGQPENNYKTTPPVLDSDGSFFLYSKLTVDKSRWQQGNVFSCSVMHEALHNHYTQKSLSLSP
light: DIVMTQSPATLSLSPGERATLSCTSSQSVYHANWLSWFQQKPGQPPKLLIYWASTLAYGVPSRFSGSGSGTDFTLTISSLQPEDAATYYCAGGYGGGRYAFGQGTKVEIKRTVAAPSVFIFPPSDEQLKSGTASVVCLLNNFYPREAKVQWKVDNALQSGNSQESVTEQDSKDSTYSLSSTLTLSKADYEKHKVYACEVTHQGLSSPVTKSFNRGEC
notes: Substitutions introduced into M103205H795-SG1, expressed with M103202L889-SK1 as light chain; EU numbering
Turning to B1, in [1], binding was put at a Kd of 450 nM. For the same molecule, the “KD fold (SG1 = 1)” value in assay [2] came out at 0.12 fold; in assay [3] it was 9 fold; in assay [4], 21.5 fold; in assay [5] it was 21.3 fold; in [6], 0.12 fold; in assay [7] it was 3.9 fold. In addition, the figures for the “KD fold (SG1 = 1)” value in assay [8] and in assay [9] were 4 fold and 3.1 fold, respectively.

B2: M103205H795-MY521/M103202L889-SK1 (antibody, human IgG1, kappa)
heavy: QVTLKESGPVLVKPTETLTLTCTVSGIDLSHDDISWVRQAPGKGLEWVGIISYAGSTYYASWAKGRLTISKDTSKNQVVLTMTNMDPVDTATYYCARGVPAYSHGGDLWGQGTLVTVSSASTKGPSVFPLAPSSKSTSGGTAALGCLVKDYFPEPVTVSWNSGALTSGVHTFPAVLQSSGLYSLSSVVTVPSSSLGTQTYICNVNHKPSNTKVDKKVEPKSCDKTHTCPPCPADELLTGPSVFLFPPKPKDTLMISRTPEVTCVVVDVSDEDPEVKFNWYVDGVEVHNAKTKPREELYNSTYRVVSVLTVLHQDWLNGKEYKCKVSNKALPKPIEKTISKAKGQPREPQVYTLPPSREEMTKNQVSLTCLVKGFYPSDIAVEWESNGQPENNYKTTPPVLDSDGSFFLYSKLTVDKSRWQQGNVFSCSVMHEALHNHYTQKSLSLSP
light: DIVMTQSPATLSLSPGERATLSCTSSQSVYHANWLSWFQQKPGQPPKLLIYWASTLAYGVPSRFSGSGSGTDFTLTISSLQPEDAATYYCAGGYGGGRYAFGQGTKVEIKRTVAAPSVFIFPPSDEQLKSGTASVVCLLNNFYPREAKVQWKVDNALQSGNSQESVTEQDSKDSTYSLSSTLTLSKADYEKHKVYACEVTHQGLSSPVTKSFNRGEC
notes: as for B1
On to B2, for which, in assay [1], binding was put at a Kd of 800 nM. Besides, the “KD fold (SG1 = 1)” value in assay [2] came to 0.16 fold; in assay [3], 3.2 fold; in assay [4] it was 3.9 fold; in assay [5], 1.3 fold; in assay [6], 0.16 fold; in assay [7], 1.5 fold. The “KD fold (SG1 = 1)” value came to 2.9 fold in assay [8] and 2.4 fold in [9].

B3: M103205H795-MY522/M103202L889-SK1 (antibody, human IgG1, kappa)
heavy: QVTLKESGPVLVKPTETLTLTCTVSGIDLSHDDISWVRQAPGKGLEWVGIISYAGSTYYASWAKGRLTISKDTSKNQVVLTMTNMDPVDTATYYCARGVPAYSHGGDLWGQGTLVTVSSASTKGPSVFPLAPSSKSTSGGTAALGCLVKDYFPEPVTVSWNSGALTSGVHTFPAVLQSSGLYSLSSVVTVPSSSLGTQTYICNVNHKPSNTKVDKKVEPKSCDKTHTCPPCPGPELLTGPVVFLFPPKPKDTLMISRTPEVTCVVVDVSDEDPEVKFNWYVDGVEVHNAKTKPREEQYNSTYRVVSVLTVLHQDWLNGKEYKCKVSNKALPKPIEKTISKAKGQPREPQVYTLPPSREEMTKNQVSLTCLVKGFYPSDIAVEWESNGQPENNYKTTPPVLDSDGSFFLYSKLTVDKSRWQQGNVFSCSVMHEALHNHYTQKSLSLSP
light: DIVMTQSPATLSLSPGERATLSCTSSQSVYHANWLSWFQQKPGQPPKLLIYWASTLAYGVPSRFSGSGSGTDFTLTISSLQPEDAATYYCAGGYGGGRYAFGQGTKVEIKRTVAAPSVFIFPPSDEQLKSGTASVVCLLNNFYPREAKVQWKVDNALQSGNSQESVTEQDSKDSTYSLSSTLTLSKADYEKHKVYACEVTHQGLSSPVTKSFNRGEC
notes: as for B1
Regarding B3, in assay [1], the Kd (in general, the equilibrium constant for the complex coming apart) was found to be 530 nM. Besides, the “KD fold (SG1 = 1)” value in assay [2] is 0.19 fold; in [3], 4.2 fold; in assay [4] it was 18.3 fold; in assay [5], 1.9 fold; in [6] it was 0.14 fold; in assay [7] it was 4.3 fold. Further, the “KD fold (SG1 = 1)” value in [8] turned out to be 3.4 fold; in [9], 2.9 fold.

B4: M103205H795-MY520/M103202L889-SK1 (antibody, human IgG1, kappa)
heavy: QVTLKESGPVLVKPTETLTLTCTVSGIDLSHDDISWVRQAPGKGLEWVGIISYAGSTYYASWAKGRLTISKDTSKNQVVLTMTNMDPVDTATYYCARGVPAYSHGGDLWGQGTLVTVSSASTKGPSVFPLAPSSKSTSGGTAALGCLVKDYFPEPVTVSWNSGALTSGVHTFPAVLQSSGLYSLSSVVTVPSSSLGTQTYICNVNHKPSNTKVDKKVEPKSCDKTHTCPPCPADELLTGPVVFLFPPKPKDTLMISRTPEVTCVVVDVSDEDPEVKFNWYVDGVEVHNAKTKPREELYNSTYRVVSVLTVLHQDWLNGKEYKCKVSNKALPKPIEKTISKAKGQPREPQVYTLPPSREEMTKNQVSLTCLVKGFYPSDIAVEWESNGQPENNYKTTPPVLDSDGSFFLYSKLTVDKSRWQQGNVFSCSVMHEALHNHYTQKSLSLSP
light: DIVMTQSPATLSLSPGERATLSCTSSQSVYHANWLSWFQQKPGQPPKLLIYWASTLAYGVPSRFSGSGSGTDFTLTISSLQPEDAATYYCAGGYGGGRYAFGQGTKVEIKRTVAAPSVFIFPPSDEQLKSGTASVVCLLNNFYPREAKVQWKVDNALQSGNSQESVTEQDSKDSTYSLSSTLTLSKADYEKHKVYACEVTHQGLSSPVTKSFNRGEC
notes: as for B1
In turn, B4 gave a Kd in assay [1] of 960 nM. In addition, the “KD fold (SG1 = 1)” value in assay [2] amounted to 0.18 fold; in assay [3], 3.5 fold; in [4] it was 8.3 fold; in assay [5], 1.3 fold; in assay [6], 0.29 fold; in assay [7] it was 2.2 fold. In addition, the “KD fold (SG1 = 1)” value in assay [8] amounted to 1.5 fold; in assay [9], 1.4 fold.
